Data on 3 molecules can be found in paper PMC8632296 (mAbs, 2021).

Assay [1] addresses human carbonic anhydrase IX on cells and in tumour tissue (Homo sapiens, UniProt Q16790). Description: plate-based cell binding assay.
Assay [2] addresses recombinant human carbonic anhydrase IX extracellular domain, monomer (human, UniProt Q16790). Description: SPR.
Assay [3] deals with recombinant human carbonic anhydrase IX extracellular domain, dimer (Homo sapiens, UniProt Q16790). Nature of the assay: SPR. A general note: In SPR one partner is held on a chip, and binding of the other changes the refractive index at the surface.

B1: c12H8, recombinant chimeric anti-hCAIX antibody (human IgG1) (antibody, V domains shown)
VH: QIQLVQSGPELKKPGETVKISCKASGYTFTNYGMNWVQQAPGKGLKWMGWINTYTGEPTYADDFKGRFAFSLETSASTAYLQINNLKNEDMATYFCARGGIATPTSYWGQGTTLTVSS
VL: not shown
As usually defined, the EC50 is the concentration at which the effect is half-maximal. Low readings indicate an effect from little substance, high ones a need for much substance. Usually Kd stands for the free concentration of one partner at which half of the binding sites on the other are occupied at equilibrium, for simple one-to-one binding. By koff is commonly meant the rate constant with which the complex falls apart. As a reminder, the kon is a measure of how fast the partners come together. B1 gave an EC50 in assay [1] of 0.221 nM. Also, in assay [2], the dissociation constant Kd came to 34.5 nM, the koff is 0.0524 s⁻¹ and the on-rate constant (kon) came out at 1.52e+06 M⁻¹ s⁻¹. Further, in assay [3], the dissociation constant (Kd) stood at 0.032 nM, the dissociation rate constant (koff) was determined as 0.000115 s⁻¹ and the on-rate constant (kon) is 3.58e+06 M⁻¹ s⁻¹.

B2: m4A2, recombinant murine anti-hCAIX antibody (mouse IgG2a) (antibody, V domains shown)
VH: EVKLEESGGGLVQPGRSMKLSCVASGFTFSYYWMDWVRQSPEKGLEWVAEIRLKSDNYATHYAESVKGRFTISRDDSKSSVYLQMNNLRAEDTGIYYCTRAPHYYGYFDYWGQGTTLTVSS
VL: QIVLTQSPAVMSAFPGEKVTMTCSASSSVGYMHWYQQKAGSSPRLLIYDTSNLSSGVPARCSGSGSGTSYSLTISRMEAEDAATYYCQQWRSYPPTFGGGTKLEIK
B2 had an EC50 in assay [1] of 1.16 nM. For the same molecule, in assay [2], the dissociation constant Kd came to 0.826 nM, the koff came out at 0.00019 s⁻¹ and the kon was 229000 M⁻¹ s⁻¹. In addition, in assay [3], the Kd amounted to 0.189 nM, the off-rate constant (koff) turned out to be 7.68e-05 s⁻¹ and the association rate constant (kon) came out at 406000 M⁻¹ s⁻¹.

B3: m9B6, recombinant murine anti-hCAIX antibody (mouse IgG2a) (antibody, V domains shown)
VH: QVQLQQPGAELVKPGASVKLSCKASGYIFTTKWINWVKQRPGQGLEWIGNIYPGSSNTYYNEKFKNKATLTVDKSSNTAHLQLSSLTSEDSAVYYCARGIANWGQGTPVTVSA
VL: DIVLTQSPSSLAVSLGQRATISCKASQSVDYDGNSYMNWFQQKPGQPPKLLIYEASSLESGIPARISGSGSGTDFTLNIHPVEEEDAATYYCQQSYEGPYTFGGGTKLEIK
Consider B3, for which a half-maximal response in assay [1] (EC50) required 21.8 nM.
